In article PMC2116304 (The Journal of Cell Biology, 1990):
“And” between values parts separate entries of the source, which are not always exact repeats. Equal values may be shown once.

Key:
[1] = biological target: K3 proteolytic fragment of the invariant chain (18,000 D, lumenal) (human); assay: cross-linking
SEC = biological target: the molecule itself; assay: SEC
[2] = biological target: the molecule itself; assay: non-reducing SDS-PAGE without cross-linker
cross-linking = biological target: the molecule itself; assay: cross-linking

K3 proteolytic fragment of the invariant chain (18,000 D, lumenal) (domain or fragment)
stoichiometry N [1]: 3

B1: excess (class II-unassociated) invariant chain from Swei B-LCL (natural protein, human, UniProt P04233-2 1-232, looked up)
chain: MHRRRSRSCREDQKPVMDDQRDLISNNEQLPMLGRRPGAPESKCSRGALYTGFSILVTLLLAGQATTAYFLYQQQGRLDKLTVTSQNLQLENLRMKLPKPPKPVSKMRMATPLLMQALPMGALPQGPMQNATKYGNMTEDHVMHLLQNADPLKVYPPLKGSFPENLRHLKNTMETIDWKVFESWMHHWLLFEMSRHSLEQKPTDAPPKESLELEDPSSGLGVTKQDLGPVPM
modifications: [35S]methionine-labelled; N-linked glycans, endo H-sensitive
stoichiometry N (SEC): 3

B2: invariant chain (from the class II-negative hybrid cell line 174xCEM.T2) (natural protein, human, UniProt P04233-2 1-232, looked up)
chain: MHRRRSRSCREDQKPVMDDQRDLISNNEQLPMLGRRPGAPESKCSRGALYTGFSILVTLLLAGQATTAYFLYQQQGRLDKLTVTSQNLQLENLRMKLPKPPKPVSKMRMATPLLMQALPMGALPQGPMQNATKYGNMTEDHVMHLLQNADPLKVYPPLKGSFPENLRHLKNTMETIDWKVFESWMHHWLLFEMSRHSLEQKPTDAPPKESLELEDPSSGLGVTKQDLGPVPM
modifications: N-linked glycans, endo H-sensitive; [35S]methionine-labelled in the affinity-purified samples
stoichiometry N [2]: 2 | stoichiometry N (cross-linking): 3 and 4 and 6
